Data reported in the supplement of paper PMC11246515.
± gives the standard deviation of the averaged measurements.

Test: total protein half-life in vivo (active degradation + dilution); higher = more stable protein
[1] = E. coli NCM3722 delta-clpP delta-lon delta-hslV, growth: N-lim chemostat, doubling time 6 h
[2] = E. coli NCM3722 delta-clpP, growth: N-lim chemostat, doubling time 6 h
[3] = E. coli NCM3722 delta-hslV, growth: N-lim chemostat, doubling time 6 h
[4] = E. coli NCM3722 delta-lon, growth: N-lim chemostat, doubling time 6 h
[5] = E. coli NCM3722 delta-smpB, growth: N-lim chemostat, doubling time 6 h
[6] = wild type E. coli NCM3722, growth: C-lim chemostat, doubling time 3 h
[7] = wild type E. coli NCM3722, growth: C-lim chemostat, doubling time 6 h
[8] = wild type E. coli NCM3722, growth: C-lim chemostat, doubling time 12 h
[9] = wild type E. coli NCM3722, growth: N-lim chemostat, doubling time 6 h
[10] = wild type E. coli NCM3722, growth: N-lim chemostat, doubling time 12 h
[11] = wild type E. coli NCM3722, growth: P-lim chemostat, doubling time 6 h
[12] = wild type E. coli NCM3722, growth: P-lim chemostat, doubling time 12 h

| Sequence | total protein half-life in vivo [1] [h] | total protein half-life in vivo [2] [h] | total protein half-life in vivo [3] [h] | total protein half-life in vivo [4] [h] | total protein half-life in vivo [5] [h] | total protein half-life in vivo [6] [h] | total protein half-life in vivo [7] [h] | total protein half-life in vivo [8] [h] | total protein half-life in vivo [9] [h] | total protein half-life in vivo [10] [h] | total protein half-life in vivo [11] [h] | total protein half-life in vivo [12] [h] |
| --- | --- | --- | --- | --- | --- | --- | --- | --- | --- | --- | --- | --- |
| MHYQPKQDLLNDRIILVTGASDGIGREAAMTYARYGATVILLGRNEEKLRQVASHINEETGRQPQWFILDLLTCTSENCQQLAQRIAVNYPRLDGVLHNAGLLGDVCPMSEQNPQVWQDVMQVNVNATFMLTQALLPLLLKSDAGSLVFTSSSVGRQGRANWGAYAASKFATEGMMQVLADEYQQRLRVNCINPGGTRTAMRASAFPTEDPQKLKTPADIMPLYLWLMGDDSRRKTGMTFDAQPGRKPGISQ | 4.5 ± 0.46 | 4.29 ± 0.28 | 3.87 ± 0.11 | 4.56 ± 0.44 | 3.62 ± 0.049 | 2.99 ± 0.043 | 5.77 ± 0.044 | 9.39 ± 1.9 | 3.68 ± 0.25 | 5.92 ± 0.058 | 6.22 ± 0.24 | 11.3 ± 0.24 |
| MLKRFFITGTDTSVGKTVVSRALLQALASQGKTVAGYKPVAKGSKETPEGLRNKDALVLQSVSTIELPYEAVNPIALSEEESSVAHSCPINYTLISNGLANLTEKVDHVVVEGTGGWRSLMNDLRPLSEWVVQEQLPVLMVVGIQEGCINHALLTAQAIANDGLPLIGWVANRINPGLAHYAEIIDVLGKKLPAPLIGELPYLPRAEQRELGQYIRLAMLRSVLAVDRVTV [P0A6E9] | – | 5.16 ± 1 | 2 ± 0.11 | 2.48 | 2.11 ± 0.046 | 2.11 ± 0.37 | – | 4.99 ± 0.23 | – | 3.5 ± 0.4 | – | 5.74 ± 0.84 |
| MDHRLLEIIACPVCNGKLWYNQEKQELICKLDNLAFPLRDGIPVLLETEARVLTADESKS [P0AAZ7] | > 8 | 5.82 ± 0.15 | – | 4.19 ± 0.043 | 4.65 ± 1.2 | 1.64 ± 0.1 | 4.73 ± 0.12 | 8.88 ± 1.5 | 3.05 ± 0.11 | 6.3 ± 0.69 | 3.69 ± 0.26 | 7.87 ± 0.7 |
| MQTEHVILLNAQGVPTGTLEKYAAHTADTRLHLAFSSWLFNAKGQLLVTRRALSKKAWPGVWTNSVCGHPQLGESNEDAVIRRCRYELGVEITPPESIYPDFRYRATDPSGIVENEVCPVFAARTTSALQINDDEVMDYQWCDLADVLHGIDATPWAFSPWMVMQATNREARKRLSAFTQLK | 4.63 ± 0.67 | 4.86 ± 0.81 | 4.79 ± 0.39 | 4.68 ± 0.56 | 4.42 ± 0.16 | 3.09 ± 0.08 | 6.016 ± 0.044 | 8.96 ± 0.18 | 4.39 | 7.89 | 5.61 | 13.1 ± 1.7 |
| MEFLMDPSIWAGLLTLVVLEIVLGIDNLVFIAILADKLPPKQRDKARLLGLSLALIMRLGLLSLISWMVTLTKPLFTVMDFSFSGRDLIMLFGGIFLLFKATTELHERLENRDHDSGHGKGYASFWVVVTQIVILDAVFSLDAVITAVGMVNHLPVMMAAVVIAMAVMLLASKPLTRFVNQHPTVVVLCLSFLLMIGLSLVAEGFGFHIPKGYLYAAIGFSIIIEVFNQIARRNFIRHQSTLPLRARTADAILRLMGGKRQANVQHDADNPMPMPIPEGAFAEEERYMINGVLTLASRSLRGIMTPRGEISWVDANLGVDEIREQLLSSPHSLFPVCRGELDEIIGIVRAKELLVALEEGVDVAAIASASPAIIVPETLDPINLLGVLRRARGSFVIVTNEFGVVQGLVTPLDVLEAIAGEFPDADETPEIITDGDGWLVKGGTDLHALQQALDVEHLADDDDIATVAGLVISANGHIPRVGDVIDVGPLHITIIEANDYRVDLVRIVKEQPAHDEDE [P0AEC0] | 6.99 ± 0.2 | 6.691 ± 0.015 | 6.46 ± 0.09 | 6.27 ± 0.49 | 5.4 ± 0.28 | – | 5.88 ± 0.19 | 12.3 ± 0.92 | 6.71 ± 0.84 | 14.2 ± 0.73 | 6.06 ± 0.7 | 12.2 ± 1.3 |
| MYIGIDLGTSGVKVILLNEQGEVVAAQTEKLTVSRPHPLWSEQDPEQWWQATDRAMKALGDQHSLQDVKALGIAGQMHGATLLDAQQRVLRPAILWNDGRCAQECTLLEARVPQSRVITGNLMMPGFTAPKLLWVQRHEPEIFRQIDKVLLPKDYLRLRMTGEFASDMSDAAGTMWLDVAKRDWSDVMLQACDLSRDQMPALYEGSEITGALLPEVAKAWGMATVPVVAGGGDNAAGAVGVGMVDANQAMLSLGTSGVYFAVSEGFLSKPESAVHSFCHALPQRWHLMSVMLSAASCLDWAAKLTGLSNVPALIAAAQQADESAEPVWFLPYLSGERTPHNNPQAKGVFFGLTHQHGPNELARAVLEGVGYALADGMDVVHACGIKPQSVTLIGGGARSEYWRQMLADISGQQLDYRTGGDVGPALGAARLAQIAANPEKSLIELLPQLPLEQSHLPDAQRYAAYQPRRETFRRLYQQLLPLMA | 5.25 ± 0.23 | 4.96 ± 0.27 | 5.75 ± 1.6 | 4.82 ± 0.32 | 4.5 ± 0.047 | 3.52 ± 0.21 | 5.87 ± 0.13 | 9.67 ± 1.8 | 4.57 ± 0.12 | 8 ± 1.8 | 6.62 ± 0.53 | 12.5 ± 0.58 |
| MEYQHWLREAISQLQASESPRRDAEILLEHVTGRGRTFILAFGETQLTDEQCQQLDALLTRRRDGEPIAHLTGVREFWSLPLFVSPATLIPRPDTECLVEQALARLPEQPCRILDLGTGTGAIALALASERPDCEIIAVDRMPDAVSLAQRNAQHLAIKNIHILQSDWFSALAGQQFAMIVSNPPYIDEQDPHLQQGDVRFEPLTALVAADSGMADIVHIIEQSRNALVSGGFLLLEHGWQQGEAVRQAFILAGYHDVETCRDYGDNERVTLGRYYQ [P0ACC1] | 4.72 ± 1.1 | 3.88 | 3.35 | 4.15 ± 0.14 | 3.23 | – | 5.5 ± 0.85 | 9.85 | – | 5.79 ± 0.26 | 5.35 ± 0.41 | 9.69 ± 0.87 |
